# In article PMC9784857, “In Vitro Characterization of a Nuclear Receptor-like Domain of the Xylanase Regulator 1 from Trichoderma reesei” (Journal of Fungi, 2022):
# Where a chain is given by its changes, count along the chain named.
# T1: Xyr1A824V (Trichoderma reesei, UniProt G0RLE8 1-920, A804V)
# T1 sequence: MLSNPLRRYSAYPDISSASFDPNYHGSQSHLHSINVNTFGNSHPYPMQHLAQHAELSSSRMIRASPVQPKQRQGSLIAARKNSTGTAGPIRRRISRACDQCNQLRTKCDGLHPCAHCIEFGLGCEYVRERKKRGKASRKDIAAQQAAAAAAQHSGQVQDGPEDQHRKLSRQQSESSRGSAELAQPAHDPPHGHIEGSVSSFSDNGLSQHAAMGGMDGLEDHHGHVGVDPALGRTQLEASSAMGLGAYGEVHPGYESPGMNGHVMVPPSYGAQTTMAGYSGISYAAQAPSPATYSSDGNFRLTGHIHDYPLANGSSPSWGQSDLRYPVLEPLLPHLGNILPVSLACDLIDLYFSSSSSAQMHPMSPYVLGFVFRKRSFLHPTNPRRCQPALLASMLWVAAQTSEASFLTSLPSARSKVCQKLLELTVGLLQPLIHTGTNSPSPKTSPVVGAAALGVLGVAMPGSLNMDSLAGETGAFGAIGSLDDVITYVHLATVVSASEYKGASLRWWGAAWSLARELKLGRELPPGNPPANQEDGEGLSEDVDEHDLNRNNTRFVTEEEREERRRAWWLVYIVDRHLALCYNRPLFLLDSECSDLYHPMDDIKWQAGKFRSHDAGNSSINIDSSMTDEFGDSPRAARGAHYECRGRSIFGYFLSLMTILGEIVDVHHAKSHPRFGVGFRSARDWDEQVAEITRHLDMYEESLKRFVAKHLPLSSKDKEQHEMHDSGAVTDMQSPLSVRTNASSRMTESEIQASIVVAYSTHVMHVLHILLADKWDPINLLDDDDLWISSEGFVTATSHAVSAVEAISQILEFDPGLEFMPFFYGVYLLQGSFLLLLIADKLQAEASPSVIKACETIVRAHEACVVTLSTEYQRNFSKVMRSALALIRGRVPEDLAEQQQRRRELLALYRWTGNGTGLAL
# T2: Xyr1 (Xylanase regulator 1) (Trichoderma reesei, UniProt G0RLE8 1-920)
# T2 sequence: T1 sequence with V804A
# B1: xyn1 URR fragment (-430 to -396), Pxyn1f/Pxyn1r (dsDNA)
# DNA 1: TTGGCAGGCTAAATGCGACATCTTAGCCGGATGCA
# DNA 2: TGCATCCGGCTAAGATGTCGCATTTAGCCTGCCAA
# B2: Xylanase regulator 1 (Xyr1), wild type (natural protein)
# chain: T1 sequence with V804A
# How the values were obtained:
# [1] = biological target: T3, Xyr1 (Xylanase regulator 1) (Trichoderma reesei, UniProt G0RLE8); test: far-UV circular dichroism, ligand-induced conformational change; type: binding; settings: 250 nM protein, buffer A (50 mM Tris, 200 mM NaCl, 50 mM NaH2PO4, 10% glycerol) pH 7.5, 22 °C; sugar 40-1000 nM; no added DNA; proposed allosteric
# T3 construct: full coding region, codon-optimised synthetic gene, C-terminal His6 tag (not reported cut), pET28a (pTS1), E. coli BL21(DE3)pLysS; 105 kDa; monomer and homodimer
# Text: far-UV circular dichroism, ligand-induced conformational change on Xyr1 (Xylanase regulator 1) | All three carbohydrates cause a change in the Xyr1 secondary structure
# [2] = biological target: Xylanase regulator 1 with the A824V mutation (Xyr1_(A824V)) (Trichoderma reesei) (UniProt G0RLE8); test: native gel or EMSA; blue native PAGE (BN-PAGE), 200 nM of each protein, non-denaturing conditions; second dimension SDS-PAGE, identity confirmed by Western blot; also run with target DNA or carbohydrates as controls (Figure S1)
# [3] = biological target: T3, Xyr1 (Xylanase regulator 1); test: far-UV circular dichroism, ligand-induced conformational change; type: binding; settings: 250 nM protein, buffer A (50 mM Tris, 200 mM NaCl, 50 mM NaH2PO4, 10% glycerol) pH 7.5, 22 °C, sugar 40-1000 nM, no added DNA, proposed allosteric
# [4] = biological target: T1, Xyr1A824V; test: CD spectroscopy titration (222 nm); no carbohydrate; Engel fit, n = 2; Buffer A: 50 mM Tris, 200 mM NaCl, 50 mM NaH2PO4, 10% glycerol, pH 7.5, 22 °C; CD: 250 nM protein, DNA 0-900 nM; EMSA: 15 ng probe, 10 min, 0.2 µg/µL p(dIdC) plus unspecific duplex CKT067/CKT068; settings: protein: recombinant; tags: C-terminal His6; chain copies: 2; blunt
# [5] = biological target: T2, Xyr1 (Xylanase regulator 1); test: as above; settings: protein: recombinant; tags: C-terminal His6; chain copies: 2; blunt
# [6] = biological target: the molecule itself; test: native gel or EMSA; blue native PAGE (BN-PAGE), 200 nM of each protein, non-denaturing conditions; second dimension SDS-PAGE, identity confirmed by Western blot; also run with target DNA or carbohydrates as controls (Figure S1)
# T3 sequence (G0RLE8 entry or part of it): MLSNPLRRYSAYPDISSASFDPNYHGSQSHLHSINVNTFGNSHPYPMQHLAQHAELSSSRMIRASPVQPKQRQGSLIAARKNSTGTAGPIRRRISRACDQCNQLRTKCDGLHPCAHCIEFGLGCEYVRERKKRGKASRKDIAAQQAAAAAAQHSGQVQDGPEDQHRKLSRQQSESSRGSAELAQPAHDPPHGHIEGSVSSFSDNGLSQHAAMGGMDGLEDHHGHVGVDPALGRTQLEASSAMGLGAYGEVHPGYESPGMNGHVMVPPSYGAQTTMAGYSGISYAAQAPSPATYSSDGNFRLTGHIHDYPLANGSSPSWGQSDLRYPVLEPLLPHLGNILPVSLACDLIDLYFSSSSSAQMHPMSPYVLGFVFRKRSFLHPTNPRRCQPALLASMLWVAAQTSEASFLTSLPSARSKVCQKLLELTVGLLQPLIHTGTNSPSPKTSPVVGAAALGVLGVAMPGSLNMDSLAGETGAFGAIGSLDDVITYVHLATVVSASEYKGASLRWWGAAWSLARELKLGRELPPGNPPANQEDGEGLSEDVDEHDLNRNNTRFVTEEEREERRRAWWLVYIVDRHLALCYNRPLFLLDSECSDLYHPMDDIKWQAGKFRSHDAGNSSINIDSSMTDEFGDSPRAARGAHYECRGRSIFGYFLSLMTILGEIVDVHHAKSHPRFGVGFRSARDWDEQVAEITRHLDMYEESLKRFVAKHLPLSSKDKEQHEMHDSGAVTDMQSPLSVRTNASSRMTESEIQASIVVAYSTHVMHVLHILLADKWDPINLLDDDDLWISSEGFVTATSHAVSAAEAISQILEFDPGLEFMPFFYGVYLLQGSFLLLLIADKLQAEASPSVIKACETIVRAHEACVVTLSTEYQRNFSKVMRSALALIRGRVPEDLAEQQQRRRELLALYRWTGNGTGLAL
molecule,measurement,setting,value
O=P(O)(O)OC[C@H]1OC(O)[C@H](O)[C@@H](O)[C@@H]1O (stereo partly drawn) [D-glucose-6-phosphate],loss of α-helix structures,[1],21%
Xylanase regulator 1 with the A824V mutation (Xyr1_(A824V)) (from UniProt G0RLE8 1-920),stoichiometry N,[2],2
OC1OC[C@@H](O)[C@H](O)[C@H]1O (stereo partly drawn) [D-xylose],loss of α-helix structures (up to),[3],31%
OC[C@H]1O[C@@H](O[C@H]2C(O)O[C@H](CO)[C@@H](O)[C@@H]2O)[C@H](O)[C@@H](O)[C@@H]1O (stereo partly shown) [sophorose],loss of α-helix structures (up to),"[3]; spectra not shown, stated highly similar to D-xylose",31%
B1,Kd,[4],523 nM
same,Kd,[5],128 nM
B2,stoichiometry N,[6],2
